Source: the RNAGym collection of RNA variant scans (doi:10.1073/pnas.2313332121)

B1: TPR t1 (parent)
chain: GACCAAUCUGCCCUCAGAGCUCGAGAACAUCUUCGGAUGCAGAGGAGGCAGGCUUCGGUGGCGCGAUAGCGCCAACGUCCUCAACCUCCAAUGCAUCCCACCACAUGAUGAUGCCUGAAGAGCCUUGGUUUUUUG

Variants of: B1
Test: polymerase ribozyme fitness, log enrichment relative to wild type (log ratio); higher = more active; in vitro selection for triplet polymerase activity
How it was run: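 Each subunit of a heterodimeric triplet polymerase ribozyme was mutagenized into a library by PCR, transcribed, and subjected to one round of in vitro selection, run in triplicate. Libraries were annealed with a biotinylated primer, the partner subunit and triplets, incubated frozen at −7 °C, and extended constructs were gel-excised, captured on streptavidin beads and recovered by RT-PCR. Input and output libraries were sequenced on Illumina, keeping genotypes with ≥10 input reads and ≥1 read per output. Fitness is log base 2 of genotype enrichment divided by wild-type enrichment, from inverse-variance-weighted replicate averages.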

Variant | polymerase ribozyme fitness (log ratio)
C20U C53G G69C | -2.15
C20G U32G C80A C99A C124G | -5.93
U21C G23A G44C G48A A90U C97G C101U C102U C114A | -7.25
C20U U55A C79U G120A | -1.1
C20U G44A A74G U87C U92A G93A C124U | -3.64
G19C C20U C31G C89U U109C C123U | -7.81
U21A A46U C53A G63C | -1.83
U21A A27C | -3.89
U21A A37C U38G U112G G122C C124U G135A | -1.11
C20U C22A G23U G44U G63A C88G A103C U109A | -6.38
G19C G45A C53U | -3.65
C20U G63A U96G | -3.22
C20G G113C | -1.32
C20G G113A | -2.69
U21A A46U G93A G113U U130A U132A | -3.92
C20G G107A C114U G122A | -6.03
U21A A24G C70U | -2.2
U21A C56U | -0.334
U21A C56A | -0.423
U21G A37G A41U G113U | -2.41
C20A G45C G57C C73G U106C U130G | -4.17
U21C A50U C70U C99U A111U | -7.45
U21A C62A C89U G110A U112C | -5.55
C20U A41G G60C | -2.04

Variant | polymerase ribozyme fitness (log ratio)
G19C C101A | -3.27
C20G A41U C115U | -4.6
U21G G48C | -1.56
C20A G39C | -3.59
G19U A111C | -2.32
G19A C53A U125G | -3.26
U21G A37U C80A A121G | -3.51
C20U G52A C124U | 0.255
C20A G36U | -2.98
G19C A41U C64G C98A U109A | -6.43
C20G A50C | -6.14
C20A C76U C82G U96G | -4.53
C20G U21A C62U U112A | -1.31
C20G U106C | -4.11
U21A G69A U112A | -3
G19A C104U | -2.85
C20U C22A C76U C85G C123U | -5.95
U21A C72A U125G | -0.653
C20A G110A | -4.21
C20A G48U C70A U78G G113A G117C | -7.02
C20A G63U C85G | -5.08
G19A G58C G107A C114U | -3.12
C20U U38A A50U G71A | -4.89
U21C C22U C53G G57U G60A | -5.06

Variant | polymerase ribozyme fitness (log ratio)
C20A G77U G120C | -1.96
G19U A41U G63C A111G | -4.2
G19C A41U G71A C88G C89U C104A C124U | -5.88
G19U C70U U78C C88U | -3.57
C20G C72A C115A | -4.55
C20U A26G A43G C53G C62A C82U | -5.29
C20G C56A C124U | -4.05
U21A A119U | -0.295
G19C C49A A50U G69U C89U U106A C123G U132A U133G | -1.46
G19U G23C A27G A41C A46U G47C C70U C115U G135A | -5.42
C20G U116C | -3.78
C20A C88A | -2.94
C20A A27G C40G U55C G71C | -4.12
C20G U33G C34G G44A A46U C98G G110C G113C | -6.24
G19C G58C A75U C82G | -3.28
G19A G63C C76A G93A G110C | -5.44
C20U C53G | -1.28
C20G C28U A37U A43U G45A U106A C123G | -7.36
C20U G77U A91G | -5.11
C20U C31G A66U C73U C98A G110A | -6.9
C20U C72U G120C | -1.44
C20U G44U A50G A74G | -3.66
U21A C22G A27U C56U C114U | -3.34
C20G G44C C72G A95G | -5.22

Variant | polymerase ribozyme fitness (log ratio)
C20G A37G G69U C79U G117C | -1.73
G19U G107A G120A U125A | -7.29
C20A U96A C102G C114A | -5.84
U21C G77A C88U U106C G110A | -5
G19U C53G C73A U112A G135A | -0.754
G19C G42C C97U C115A A119G U129A | -5.99
C20A G71A | -3.79
G19A G45A C62U G71A | -3.18
U21A U59C G69U C123A G128C | -3.33
G19A C70A C94U | -5.61
G19A C62U C88A A121C | -1.46
G19A C73G G77U U112A G128A | -2.41
G19A C49G G63C G93C A105C G107C G117C | -6.07
C20U G52A | -0.737
C20U G61C A111G | -5.2
C20A C73U | -2.08
U21A G60A U96C U116G | -1.53
G19A C20G U106C G117A | -6.46
C20A U59C | -2.71
U21C G52U G60C | -1.61
C20G C53U G60A U96A | -5.21
C20A G57C C62U | -1.88
C20A G60A G113C | -5.06
U21A C94G | -1.64

Variant | polymerase ribozyme fitness (log ratio)
U21C A41G G44A C98U | -4.24
C20A G61U G63A C72U U92C C99G C101A C123U | -6.1
C20G G36U U92C C101A U106A U109A | -3.02
C20G C40U G42C G48U U109A | -4.15
C20A C56U | -2.54
C20A C56A | -2.5
C20A C56G | -3.63
U21A G57C G120A | -0.312
C20U C56A C73U U129G U130A | -3
C20U A29G G63A C80U | -4.01
U21C C28A G57U C70A U78G G110U | -3.7
C20A G45U C56U | -3.25
C20A A50U U126C | -4.92
G19A C20U U55G G57U C99A G113U | -6.19
G19A G51U G60A C124U | -5.85
C20U C72G C102A | -3.19
C20U A41C | -3.04
C20U G60U | -1.52
C20U G60A | -1.03
G19U C64U C124U | -2.27
G19U G25A C53U C64G G107C C114G | -8.12
U21C C22A G69C | -4.23
G19A | -2.28
G19U | -2.52

Variant | polymerase ribozyme fitness (log ratio)
G19C | -1.91
A18U U81A | -3.77
G19A G48A A91G | -3.87
C20U A27C G117U | -6
A18U G117U | -4.36
C20U A46C C72G | -3.17
C20A C124A | -0.989
G19U C80A G113A | -5
C20U G120C | -0.868
G19C C53G C62U C86U | -2.88
C20A G42U | -4
G19A G60A | -1.41
C20U U55G C56A | -1.7
G19U U59A | -3.3
G19U C56A G113C | -3.24
G19A A50U G113C | -2.01
C20A C62G A66C C104G U116C C123G G128U | -6.82
U21C G77C | -0.73
C20U G57A G63A C115A | -3.54
U21A C104U | -0.273
C20U G35C G57U C80U U129G | -5.92
U21G G47A A100C U109A U112C A119G | -7.27
C20A G63A C102G G113C C115A G117C | -8.43
C20A G39A G42C G61U U129C | -5.17

Variant | polymerase ribozyme fitness (log ratio)
A18U U55G C56G | -4.5
C20U C70U C102U | -3.45
C20A G45U | -4.09
G19C C62A U96A C124A G128C | -5.42
C20U A24U C56U | -6.92
G19U G69C | -4.45
G19U G69A | -3.8
C20G C76U G93C A95G C124A | -4.72
G19A C20A C62U | -4.22
C20A G42C G48U G122U | -4.09
G19U G45U G60U A119U | -5.1
C20A G93U U112G | -4.35
C20A A74U | -3.01
U21A G39C C49U G63A A75G A121C | -2.73
U21A C72G C86G | -2.59
C20U C72G A91G C101A C114G | -2.36
C20A U59A U78A G117A | -4.88
G19A C20U | -1.54
U21A C49G C62A G113C | -4.99
U21C G69U C89U | -0.984
C20A C70U | -3.19
C20G C53A G57U A91C A95G U109G | -3.11
C20U G69U C70G C94A | -3.15
